Values of other authors in publication PMC3012698, “Characterization of a Novel Interaction between Bcl-2 Members Diva and Harakiri” (PLoS ONE, 2010).
Read-outs that look alike come from different tables or passages of the source.

Key:
[1] = molecular target: Mcl-1 (UniProt Q07820)
[2] = molecular target: BFL-1 (Homo sapiens) (UniProt Q16548)
[3] = molecular target: BFL-1 (Homo sapiens) (UniProt Q16548); remark: listed apart in the source
[4] = molecular target: Bcl-2 (Homo sapiens) (UniProt P10415)
[5] = molecular target: Bcl-w (Homo sapiens) (UniProt Q92843)
[6] = molecular target: Mcl-1 (UniProt Q07820); remark: listed apart in the source
[7] = molecular target: Bcl-2 (Homo sapiens) (UniProt P10415); remark: listed apart in the source

BFL-1 (Homo sapiens), sequence (Q16548 whole entry): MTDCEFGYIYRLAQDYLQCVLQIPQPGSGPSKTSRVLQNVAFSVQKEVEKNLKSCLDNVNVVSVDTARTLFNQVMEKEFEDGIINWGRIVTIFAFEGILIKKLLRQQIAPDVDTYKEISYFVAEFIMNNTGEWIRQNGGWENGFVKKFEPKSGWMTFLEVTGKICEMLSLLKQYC
Bcl-2 (Homo sapiens), sequence (P10415 whole entry): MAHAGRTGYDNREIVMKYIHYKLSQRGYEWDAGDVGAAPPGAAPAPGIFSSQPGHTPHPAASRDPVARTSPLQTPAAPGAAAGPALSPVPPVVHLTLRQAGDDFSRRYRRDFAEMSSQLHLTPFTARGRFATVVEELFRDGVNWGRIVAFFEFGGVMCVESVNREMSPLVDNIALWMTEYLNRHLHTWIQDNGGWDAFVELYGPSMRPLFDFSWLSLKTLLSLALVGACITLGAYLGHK
Mcl-1, sequence (Q07820 whole entry): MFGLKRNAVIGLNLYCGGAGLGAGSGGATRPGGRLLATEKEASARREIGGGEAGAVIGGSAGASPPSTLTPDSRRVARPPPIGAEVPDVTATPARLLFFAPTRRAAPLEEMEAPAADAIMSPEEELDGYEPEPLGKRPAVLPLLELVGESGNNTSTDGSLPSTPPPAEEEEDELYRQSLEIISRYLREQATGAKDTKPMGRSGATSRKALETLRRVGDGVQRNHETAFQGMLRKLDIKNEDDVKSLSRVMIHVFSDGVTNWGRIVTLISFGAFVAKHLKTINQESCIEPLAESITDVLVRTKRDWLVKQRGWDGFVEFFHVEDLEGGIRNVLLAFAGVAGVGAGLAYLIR
Bik BH3, sequence (Q13323 51-75): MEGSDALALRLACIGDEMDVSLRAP
Noxa BH3, sequence (Q13794 19-43): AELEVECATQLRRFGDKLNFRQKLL
Bcl-w (Homo sapiens), sequence (Q92843 2-193): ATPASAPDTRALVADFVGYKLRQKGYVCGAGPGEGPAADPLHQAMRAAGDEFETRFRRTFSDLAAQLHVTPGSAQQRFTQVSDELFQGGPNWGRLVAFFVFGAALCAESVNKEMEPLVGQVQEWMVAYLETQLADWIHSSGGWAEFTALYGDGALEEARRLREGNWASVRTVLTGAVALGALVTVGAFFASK

**Q.** With Bik BH3 (from UniProt Q13323) as the substance, how does the Kd [1] read?
**A.** 109 nM

**Q.** What about the Kd [2] of the same substance?
**A.** > 2500 nM

**Q.** Which results are given for Harakiri BH3 (from UniProt O00198)?
**A.** Kd [3]: > 2500 nM; Kd [4]: > 2500 nM; Kd [5]: > 2500 nM

**Q.** Which Kd [6] does the source give for Noxa BH3 (from UniProt Q13794) here?
**A.** 25 nM

**Q.** And the Kd [7]?
**A.** > 2500 nM
